The source of these data is publication PMC4726530 (PLoS ONE, 2016).

As a reminder, the stoichiometry N is the number of molecules, sites or subunits per partner or assembly. The term Km denotes the substrate concentration at which the rate is half of its maximum. Broadly, the kcat is the maximal rate divided by the concentration of active sites.

Series [1] addresses LMS hetero-trimer unit of GAOR2 (STK23390/STK05620/STK05610) (Sulfolobus tokodaii (endogenous, purified from the cells)). The series can be described thus: crystal structure; GAOR2 purified from S. tokodaii, 8 mg/mL, sitting drop at 25°C, 0.1 M Na-acetate pH 4.5, 0.2 M CH3COONH4, 15% PEG 4,000; 2.2 Å; one LMS hetero-trimer in the asymmetric unit, (LMS)2 by crystallographic 2-fold symmetry.

Series [2] has the same target. Kind of series: SEC; Superdex 200 10/30 gel filtration in buffer II (20 mM Tris-HCl pH 7.5, 0.25 M NaCl), molecular weights estimated against protein standards; oligomer of LMS hetero-trimer units.
For series [3], the target named is T1, GAOR2 (FAD site in M-subunit) (Sulfurisphaera tokodaii, UniProt Q974U9).
T1 construct: gene ST0562; same native (LMS)2 complex as P2; M-subunit 278 aa holds FAD; Putative oxidoreductase iron-sulfur subunit (S-subunit)
T1 sequence (Q974U9 1-278): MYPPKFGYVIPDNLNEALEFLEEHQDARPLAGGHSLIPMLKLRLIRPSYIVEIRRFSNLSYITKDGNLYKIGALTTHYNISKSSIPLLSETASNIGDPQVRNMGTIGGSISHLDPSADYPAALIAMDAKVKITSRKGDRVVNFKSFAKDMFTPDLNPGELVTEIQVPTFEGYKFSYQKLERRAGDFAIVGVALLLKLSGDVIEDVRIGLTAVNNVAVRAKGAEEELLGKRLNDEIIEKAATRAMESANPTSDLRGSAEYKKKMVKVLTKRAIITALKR
T1 sequence (Q96Y29 1-706 partner): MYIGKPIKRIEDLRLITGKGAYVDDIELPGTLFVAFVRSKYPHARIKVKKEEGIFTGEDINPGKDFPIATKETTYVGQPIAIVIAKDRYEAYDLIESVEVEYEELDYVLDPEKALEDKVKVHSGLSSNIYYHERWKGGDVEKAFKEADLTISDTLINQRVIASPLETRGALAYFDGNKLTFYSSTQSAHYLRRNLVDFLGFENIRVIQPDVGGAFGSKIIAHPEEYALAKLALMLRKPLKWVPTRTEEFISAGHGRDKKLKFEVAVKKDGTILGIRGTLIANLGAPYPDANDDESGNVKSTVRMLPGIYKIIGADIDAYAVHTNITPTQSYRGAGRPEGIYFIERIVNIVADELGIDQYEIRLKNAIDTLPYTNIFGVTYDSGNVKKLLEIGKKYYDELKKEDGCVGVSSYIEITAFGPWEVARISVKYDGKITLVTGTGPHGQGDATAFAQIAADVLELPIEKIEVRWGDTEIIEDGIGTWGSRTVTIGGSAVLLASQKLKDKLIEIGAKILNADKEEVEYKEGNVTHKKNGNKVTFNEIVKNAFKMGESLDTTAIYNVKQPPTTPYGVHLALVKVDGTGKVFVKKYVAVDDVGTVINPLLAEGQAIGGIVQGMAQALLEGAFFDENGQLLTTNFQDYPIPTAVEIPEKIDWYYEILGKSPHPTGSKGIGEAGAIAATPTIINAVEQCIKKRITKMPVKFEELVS
T1 sequence (Q974V0 1-168 partner): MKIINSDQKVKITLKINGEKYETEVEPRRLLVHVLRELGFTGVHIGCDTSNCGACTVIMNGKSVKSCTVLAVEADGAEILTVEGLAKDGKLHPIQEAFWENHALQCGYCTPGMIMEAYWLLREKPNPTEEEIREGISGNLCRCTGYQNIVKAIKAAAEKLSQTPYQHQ
Kind of series: X-ray crystal structure, […] Å. The class given is binding. The conditions noted are these: bound in M-subunit; co-purified with native enzyme; crystals at pH 4.5.

Series [4] addresses LMS hetero-trimer unit of GAOR1 (STK17810/STK17830/STK17820) (Sulfolobus tokodaii (endogenous, purified from the cells)). Kind of series: SEC; Superdex 200 10/30 gel filtration in buffer II (20 mM Tris-HCl pH 7.5, 0.25 M NaCl), molecular weights estimated against protein standards; oligomer of LMS hetero-trimer units.
Series [5] deals with the molecule itself. The series can be described thus: crystal structure; GAOR2 purified from S. tokodaii, 8 mg/mL, sitting drop at 25°C, 0.1 M Na-acetate pH 4.5, 0.2 M CH3COONH4, 15% PEG 4,000; 2.2 Å; one LMS hetero-trimer in the asymmetric unit, (LMS)2 by crystallographic 2-fold symmetry.
Substrate in series [6]: O=CCc1c[nH]c2ccccc12
Kind of series: purified protein. The class given is biochemical, Sulfurisphaera tokodaii. The conditions noted are these: 2 mM MV as electron acceptor, 50 mM MOPS-NaOH pH 7.0, 80°C.

Substrate in series [7]: CC=O
The series can be described thus: purified protein. The class given is biochemical, Sulfurisphaera tokodaii. The conditions noted are these: 2 mM MV as electron acceptor, 50 mM MOPS-NaOH pH 7.0, 80°C.

Substrate in series [8]: O=CC(O)COP(=O)(O)O
The series can be described thus: purified protein. The class given is biochemical, Sulfurisphaera tokodaii. Particulars: 2 mM MV as electron acceptor, 50 mM MOPS-NaOH pH 7.0, 80°C.

Substrate in series [9]: O=C[C@H](O)CO
Kind of series: purified protein. The conditions noted are these: 0.1 mM DCPIP as electron acceptor, 50 mM MOPS-NaOH pH 7.0, 70°C.

With “LMS hetero-trimer unit of GAOR2 (STK23390/STK05620/STK05610) (complex)”, the stoichiometry N in [1] and in series [2] was 2 in each case.
As for `Cc1cc2nc3c(=O)[nH]c(=O)nc-3n(C[C@H](O)[C@H](O)[C@H](O)COP(=O)(O)OP(=O)(O)OC[C@H]3O[C@@H](n4cnc5c(N)ncnc54)[C@H](O)[C@@H]3O)c2cc1C` [FAD], the “X-ray crystal structure, 2.2 Å” value in series [3] is “one Mo-PCD (L-subunit), one FAD (M-subunit), two [2Fe-2S] clusters”.
“LMS hetero-trimer unit of GAOR1 (STK17810/STK17830/STK17820) (complex)”: the stoichiometry N in [4] was 4.

B1: STK23390, molybdo-pyranopterin L-subunit of glyceraldehyde oxidoreductase GAOR2 (natural protein, UniProt Q96Y29 1-706, looked up)
chain: MYIGKPIKRIEDLRLITGKGAYVDDIELPGTLFVAFVRSKYPHARIKVKKEEGIFTGEDINPGKDFPIATKETTYVGQPIAIVIAKDRYEAYDLIESVEVEYEELDYVLDPEKALEDKVKVHSGLSSNIYYHERWKGGDVEKAFKEADLTISDTLINQRVIASPLETRGALAYFDGNKLTFYSSTQSAHYLRRNLVDFLGFENIRVIQPDVGGAFGSKIIAHPEEYALAKLALMLRKPLKWVPTRTEEFISAGHGRDKKLKFEVAVKKDGTILGIRGTLIANLGAPYPDANDDESGNVKSTVRMLPGIYKIIGADIDAYAVHTNITPTQSYRGAGRPEGIYFIERIVNIVADELGIDQYEIRLKNAIDTLPYTNIFGVTYDSGNVKKLLEIGKKYYDELKKEDGCVGVSSYIEITAFGPWEVARISVKYDGKITLVTGTGPHGQGDATAFAQIAADVLELPIEKIEVRWGDTEIIEDGIGTWGSRTVTIGGSAVLLASQKLKDKLIEIGAKILNADKEEVEYKEGNVTHKKNGNKVTFNEIVKNAFKMGESLDTTAIYNVKQPPTTPYGVHLALVKVDGTGKVFVKKYVAVDDVGTVINPLLAEGQAIGGIVQGMAQALLEGAFFDENGQLLTTNFQDYPIPTAVEIPEKIDWYYEILGKSPHPTGSKGIGEAGAIAATPTIINAVEQCIKKRITKMPVKFEELVS
notes: STK23390, L-subunit of GAOR2, Sulfolobus tokodaii; Carries Mo-PCD; Cys405 and Cys689 form a disulfide bridge; also called L-subunit of GAOR2; ST23390
B1: the “stoichiometry N” value in series [5] is 2. Further, the Km in “purified protein [6]” worked out at 92 ± 17 µM; in “purified protein [7]” it was 1330 ± 20 µM; in the series “purified protein [8]”, 85 ± 5 µM; in the series “purified protein [9]”, 30 ± 9 µM. Also, the turnover number (kcat) was determined as 2.77 ± 0.22 s⁻¹ in “purified protein [6]”, 3.38 ± 0.02 s⁻¹ in “purified protein [7]”, 0.65 ± 0.01 s⁻¹ in “purified protein [8]” and 50.5 ± 0.05 s⁻¹ in the series “purified protein [9]”.

B2: GAOR3 (Sulfurisphaera tokodaii str. 7) (protein)
chain: MYVGQRVKRKEDLKLITGSGRYIDDIEIPGNLYIAILRSSVAHAKLKKIEYSDVLKLNGVYGVITGLTIPVENRPRNFPMAKDEILYMGQPIAAVLAKDRYVAVDALDYISYDYEELPAVIDPEEAINSKVKAIEDYDNIIYKKTYSGGNAEEAYEKSDVKIEEKLVISRVYAAPMEPRGLVVDYQQDRLTVYASTQSPHYMRSFLLSAFGDKVNDIRVIQADVGGAFGSKLFPYPEDYIAVFAALTYKRPVKLVNTRRDDLFSTYHSRGQIHKVKVGASKDGKINSILDDLIIDLGAAWHGTYLADIPATLITGPYDIKNAKVNVFGVLTNKTPLDQYRGAGRPEAAFVYERIMDIVADELKIDPIELRRKNIIQSTPYKNVMGLTYDSGDYNALLTKAESYYREMEQRAEELRRQGKRVGVGLSFYIEQNNFGPWESASVRLLSNGKVEVVIGAAPHGQGTATGIAQIVADELEISIDDVEVTWGDTDKISNAFGTYGSRSLTLAGNAALLASRKLKENIMKLAAQFMKSDVEELQYKDGKVFNPKTGKSMTLKEIAIKVTSNLGGVWRYKAEPTLEATASFGFDNYTFPYGSHIAMVEVTDEGVVKVLDYVAIDDIGVVVNPMLAEGQVHGGVIQGFGETLLEQIVYDNNGNLLTSTFADYLIPSAVESFNMKWFYTEIGKSNAPLPAKGIGEGATIGAPPALIRAIERAIGKRLTALPVKMEELSK
notes: LMS hetero-trimer; L 730 aa, M 278 aa, S 168 aa; 85 kDa by gel filtration; M-subunit); Putative oxidoreductase iron-sulfur subunit (S-subunit)
With B2, the Km in “purified protein [6]” (enzyme about 70% pure) amounted to 370 ± 390 µM; in “purified protein [8]” (enzyme about 70% pure), 3.5 ± 1.1 µM; in the series “purified protein [9]” (enzyme about 70% pure) it was 11 ± 0 µM. Further, the kcat in “purified protein [6]” (enzyme about 70% pure) stood at 3.58 ± 2.49 s⁻¹; in “purified protein [8]” (enzyme about 70% pure), 0.43 ± 0.03 s⁻¹; in “purified protein [9]” (enzyme about 70% pure), 3.58 ± 0.11 s⁻¹.
